In this series the target is Carcinoembryonic antigen (CEA) (UniProt P06731 35-685). Briefly: electrochemical aptasensor (CV, DPV); immobilized aptamer; current falls with CEA; LOD 7.6 ng/mL (not a Kd); 0.05 M PBS pH 7.0, 0.1 M KCl, 5 mM [Fe(CN)6]3-/4-; temperature not stated.
Carcinoembryonic antigen (CEA), sequence (P06731 35-685): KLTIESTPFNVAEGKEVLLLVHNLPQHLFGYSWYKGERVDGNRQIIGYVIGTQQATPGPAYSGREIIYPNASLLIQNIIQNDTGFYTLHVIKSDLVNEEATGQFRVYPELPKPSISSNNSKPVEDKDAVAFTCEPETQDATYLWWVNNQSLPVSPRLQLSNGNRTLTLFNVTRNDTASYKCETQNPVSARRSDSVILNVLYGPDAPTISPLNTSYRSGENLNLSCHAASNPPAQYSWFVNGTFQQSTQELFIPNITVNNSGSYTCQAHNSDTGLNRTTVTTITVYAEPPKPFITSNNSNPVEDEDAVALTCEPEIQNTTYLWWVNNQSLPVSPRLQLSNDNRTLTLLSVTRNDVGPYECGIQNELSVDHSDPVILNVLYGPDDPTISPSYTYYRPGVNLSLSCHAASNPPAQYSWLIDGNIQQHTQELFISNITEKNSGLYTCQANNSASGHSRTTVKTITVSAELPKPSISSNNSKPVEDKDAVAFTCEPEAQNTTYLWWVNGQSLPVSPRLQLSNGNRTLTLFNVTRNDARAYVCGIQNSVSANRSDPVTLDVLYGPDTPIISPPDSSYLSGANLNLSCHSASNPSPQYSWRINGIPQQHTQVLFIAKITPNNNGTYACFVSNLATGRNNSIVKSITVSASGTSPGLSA

B1: CEA aptamer (ssDNA)
DNA: GTGACGCTCCTAACGCTGACTCAGGTGCAGTTCTCGACTCGGTCTTGATGTGGGTCCTGTCCGTCCGAACCAATC
modifications: 5'-NH2
As for B1, the binding result was “binds”.

(Values after publication PMC12921616, “Flower-like Silver Bismuth Sulfide/Carbon Nanosphere Nanocomposite for Sensitive Electrochemical Tumor Marker Sensing”.)
